In article PMC4412080 one finds EC50 data, which are given here for 1 substance.

For the assay, the target named is mouse anti-human CD4 IgG (BD Biosciences) (mouse). The assay can be described thus: ELISA; wells coated overnight at 4°C in PBS with mouse anti-human CD4 IgG (4 μg/mL) or with BSA; blocked with 3% BSA; phage (ID1-mZ 3 × 10^8 to 1 × 10^10 PFU/mL) in 0.1% Tween, 0.1% BSA in PBS for 1 h at r.t.; detected with HRP-conjugated anti-M13 antibody and TMB; mid-point of binding estimated; multivalent display; how the phage was prepared is not told.

“ID1-mZ phage (M13KE-derived phage that displays the minimized Z-domain of protein A and a TEV recognition sequence inside pIII, in linker L1)”: the EC50 (usually the concentration that produces a half-maximal response) was 0.6 pM.
